Results published in patent US20210388087A1 (Chugai, published 2021).

Target: T1, CD3 epsilon homodimer protein (UniProt P07766 23-126)
T1 construct: also called CD3 (CD3 epsilon)
Assay: SPR Biacore T200, CD3e homodimer on chip, vs unaltered GLS3000 antibody

T1 sequence (P07766 23-126): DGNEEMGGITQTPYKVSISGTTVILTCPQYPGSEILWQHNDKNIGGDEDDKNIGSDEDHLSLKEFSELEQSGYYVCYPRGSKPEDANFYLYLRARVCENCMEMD

ratio of amounts bound (Z=Y/X)	Binder
0.24	GLS3000 K50L (antibody, name in Kabat numbering, V domains shown, one-arm IgG as m2) VH: QVQLVESGGGVVQPGRSLRLSCAASGFTFSNAWMHWVRQAPGKGLEWVAQIKAKSNNYATYYAESVKGRFTISRDDSKNSLYLQMNSLKTEDTAVYYCRYVHYGAYYGVDAWGQGTTVTVSS VL: DIVMTQSPLSLPVTPGEPASISCRSSQSLVHSNRNTYLHWYQQKPGQAPRLLIYLVSNRFSGVPDRFSGSGSGTDFTLKISRVEAEDVGVYYCGQGTQVPYTFGQGTKLEIK
0.17	GLS3000 L27bD (antibody, name in Kabat numbering, V domains shown, one-arm IgG as m2) VH: QVQLVESGGGVVQPGRSLRLSCAASGFTFSNAWMHWVRQAPGKGLEWVAQIKAKSNNYATYYAESVKGRFTISRDDSKNSLYLQMNSLKTEDTAVYYCRYVHYGAYYGVDAWGQGTTVTVSS VL: DIVMTQSPLSLPVTPGEPASISCRSSQSDVHSNRNTYLHWYQQKPGQAPRLLIYKVSNRFSGVPDRFSGSGSGTDFTLKISRVEAEDVGVYYCGQGTQVPYTFGQGTKLEIK
0.23	GLS3000 K50S (antibody, name in Kabat numbering, V domains shown, one-arm IgG as m2) VH: QVQLVESGGGVVQPGRSLRLSCAASGFTFSNAWMHWVRQAPGKGLEWVAQIKAKSNNYATYYAESVKGRFTISRDDSKNSLYLQMNSLKTEDTAVYYCRYVHYGAYYGVDAWGQGTTVTVSS VL: DIVMTQSPLSLPVTPGEPASISCRSSQSLVHSNRNTYLHWYQQKPGQAPRLLIYSVSNRFSGVPDRFSGSGSGTDFTLKISRVEAEDVGVYYCGQGTQVPYTFGQGTKLEIK
1.19	GLS3000 L27bI (antibody, name in Kabat numbering, V domains shown, one-arm IgG as m2) VH: QVQLVESGGGVVQPGRSLRLSCAASGFTFSNAWMHWVRQAPGKGLEWVAQIKAKSNNYATYYAESVKGRFTISRDDSKNSLYLQMNSLKTEDTAVYYCRYVHYGAYYGVDAWGQGTTVTVSS VL: DIVMTQSPLSLPVTPGEPASISCRSSQSIVHSNRNTYLHWYQQKPGQAPRLLIYKVSNRFSGVPDRFSGSGSGTDFTLKISRVEAEDVGVYYCGQGTQVPYTFGQGTKLEIK
0.91	GLS3000 L27bP (antibody, name in Kabat numbering, V domains shown, one-arm IgG as m2) VH: QVQLVESGGGVVQPGRSLRLSCAASGFTFSNAWMHWVRQAPGKGLEWVAQIKAKSNNYATYYAESVKGRFTISRDDSKNSLYLQMNSLKTEDTAVYYCRYVHYGAYYGVDAWGQGTTVTVSS VL: DIVMTQSPLSLPVTPGEPASISCRSSQSPVHSNRNTYLHWYQQKPGQAPRLLIYKVSNRFSGVPDRFSGSGSGTDFTLKISRVEAEDVGVYYCGQGTQVPYTFGQGTKLEIK
0.3	GLS3000 K50P (antibody, name in Kabat numbering, V domains shown, one-arm IgG as m2) VH: QVQLVESGGGVVQPGRSLRLSCAASGFTFSNAWMHWVRQAPGKGLEWVAQIKAKSNNYATYYAESVKGRFTISRDDSKNSLYLQMNSLKTEDTAVYYCRYVHYGAYYGVDAWGQGTTVTVSS VL: DIVMTQSPLSLPVTPGEPASISCRSSQSLVHSNRNTYLHWYQQKPGQAPRLLIYPVSNRFSGVPDRFSGSGSGTDFTLKISRVEAEDVGVYYCGQGTQVPYTFGQGTKLEIK
0.71	GLS3000 L27bM (antibody, name in Kabat numbering, V domains shown, one-arm IgG as m2) VH: QVQLVESGGGVVQPGRSLRLSCAASGFTFSNAWMHWVRQAPGKGLEWVAQIKAKSNNYATYYAESVKGRFTISRDDSKNSLYLQMNSLKTEDTAVYYCRYVHYGAYYGVDAWGQGTTVTVSS VL: DIVMTQSPLSLPVTPGEPASISCRSSQSMVHSNRNTYLHWYQQKPGQAPRLLIYKVSNRFSGVPDRFSGSGSGTDFTLKISRVEAEDVGVYYCGQGTQVPYTFGQGTKLEIK
0.94	GLS3000 K107E (antibody, name in Kabat numbering, V domains shown, one-arm IgG as m2) VH: QVQLVESGGGVVQPGRSLRLSCAASGFTFSNAWMHWVRQAPGKGLEWVAQIKAKSNNYATYYAESVKGRFTISRDDSKNSLYLQMNSLKTEDTAVYYCRYVHYGAYYGVDAWGQGTTVTVSS VL: DIVMTQSPLSLPVTPGEPASISCRSSQSLVHSNRNTYLHWYQQKPGQAPRLLIYKVSNRFSGVPDRFSGSGSGTDFTLKISRVEAEDVGVYYCGQGTQVPYTFGQGTKLEIE
0.19	GLS3000 K50T (antibody, name in Kabat numbering, V domains shown, one-arm IgG as m2) VH: QVQLVESGGGVVQPGRSLRLSCAASGFTFSNAWMHWVRQAPGKGLEWVAQIKAKSNNYATYYAESVKGRFTISRDDSKNSLYLQMNSLKTEDTAVYYCRYVHYGAYYGVDAWGQGTTVTVSS VL: DIVMTQSPLSLPVTPGEPASISCRSSQSLVHSNRNTYLHWYQQKPGQAPRLLIYTVSNRFSGVPDRFSGSGSGTDFTLKISRVEAEDVGVYYCGQGTQVPYTFGQGTKLEIK
0.42	GLS3000 L27bF (antibody, name in Kabat numbering, V domains shown, one-arm IgG as m2) VH: QVQLVESGGGVVQPGRSLRLSCAASGFTFSNAWMHWVRQAPGKGLEWVAQIKAKSNNYATYYAESVKGRFTISRDDSKNSLYLQMNSLKTEDTAVYYCRYVHYGAYYGVDAWGQGTTVTVSS VL: DIVMTQSPLSLPVTPGEPASISCRSSQSFVHSNRNTYLHWYQQKPGQAPRLLIYKVSNRFSGVPDRFSGSGSGTDFTLKISRVEAEDVGVYYCGQGTQVPYTFGQGTKLEIK
0.24	GLS3000 K50Y (antibody, name in Kabat numbering, V domains shown, one-arm IgG as m2) VH: QVQLVESGGGVVQPGRSLRLSCAASGFTFSNAWMHWVRQAPGKGLEWVAQIKAKSNNYATYYAESVKGRFTISRDDSKNSLYLQMNSLKTEDTAVYYCRYVHYGAYYGVDAWGQGTTVTVSS VL: DIVMTQSPLSLPVTPGEPASISCRSSQSLVHSNRNTYLHWYQQKPGQAPRLLIYYVSNRFSGVPDRFSGSGSGTDFTLKISRVEAEDVGVYYCGQGTQVPYTFGQGTKLEIK
0.84	GLS3000 K74T (antibody, name in Kabat numbering, V domains shown, one-arm IgG as m2) VH: QVQLVESGGGVVQPGRSLRLSCAASGFTFSNAWMHWVRQAPGKGLEWVAQIKAKSNNYATYYAESVKGRFTISRDDSKNSLYLQMNSLKTEDTAVYYCRYVHYGAYYGVDAWGQGTTVTVSS VL: DIVMTQSPLSLPVTPGEPASISCRSSQSLVHSNRNTYLHWYQQKPGQAPRLLIYKVSNRFSGVPDRFSGSGSGTDFTLTISRVEAEDVGVYYCGQGTQVPYTFGQGTKLEIK
0.5	GLS3000 K50R (antibody, name in Kabat numbering, V domains shown, one-arm IgG as m2) VH: QVQLVESGGGVVQPGRSLRLSCAASGFTFSNAWMHWVRQAPGKGLEWVAQIKAKSNNYATYYAESVKGRFTISRDDSKNSLYLQMNSLKTEDTAVYYCRYVHYGAYYGVDAWGQGTTVTVSS VL: DIVMTQSPLSLPVTPGEPASISCRSSQSLVHSNRNTYLHWYQQKPGQAPRLLIYRVSNRFSGVPDRFSGSGSGTDFTLKISRVEAEDVGVYYCGQGTQVPYTFGQGTKLEIK
0.17	GLS3000 L27bE (antibody, name in Kabat numbering, V domains shown, one-arm IgG as m2) VH: QVQLVESGGGVVQPGRSLRLSCAASGFTFSNAWMHWVRQAPGKGLEWVAQIKAKSNNYATYYAESVKGRFTISRDDSKNSLYLQMNSLKTEDTAVYYCRYVHYGAYYGVDAWGQGTTVTVSS VL: DIVMTQSPLSLPVTPGEPASISCRSSQSEVHSNRNTYLHWYQQKPGQAPRLLIYKVSNRFSGVPDRFSGSGSGTDFTLKISRVEAEDVGVYYCGQGTQVPYTFGQGTKLEIK
0.18	GLS3000 K50Q (antibody, name in Kabat numbering, V domains shown, one-arm IgG as m2) VH: QVQLVESGGGVVQPGRSLRLSCAASGFTFSNAWMHWVRQAPGKGLEWVAQIKAKSNNYATYYAESVKGRFTISRDDSKNSLYLQMNSLKTEDTAVYYCRYVHYGAYYGVDAWGQGTTVTVSS VL: DIVMTQSPLSLPVTPGEPASISCRSSQSLVHSNRNTYLHWYQQKPGQAPRLLIYQVSNRFSGVPDRFSGSGSGTDFTLKISRVEAEDVGVYYCGQGTQVPYTFGQGTKLEIK
